Assay results taken from the supplement of paper PMC9732359.
± gives the uncertainty stated by the source.

Assay: protein stability index of a GFP-peptide fusion (yeast GPS) (PSI 1-4); higher = more stable; sorted into four equal gates, so the index is relative within each strain
How it was run: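 For each peptide, the protein stability index sums the read frequency in every gate after multiplying it by the gate number. Read frequencies came from plasmids that were PCR-amplified from each gate and Illumina-sequenced, with reads assigned to strains by barcodes. The gates were four equal bins of GFP/Cherry fluorescence ratio applied to mid-log yeast in leucine-free medium carrying a pooled library of tiled 17-residue yeast protein peptides fused downstream of GFP on a Cherry-expressing plasmid.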

Row | Sequence | protein stability index (doa10∆) | protein stability index (san1∆) | protein stability index (ubr1∆) | protein stability index (pdr5∆)
1 | AGQLALDLANSGDESNV [YDL116W/NUP84] | 2.93 ± 0.29 | 2.71 ± 0.26 | 3 ± 0.12 | –
2 | SNTNDNISIITLELESF [RGR1] | 2.54 ± 0.075 | 2.25 ± 0.098 | 2.32 ± 0.11 | 2.39 ± 0.081
3 | SFLFDVLKTLEYKLATY [NUT1] | 2.33 ± 0.062 | 3 ± 0.097 | 2.03 ± 0.074 | 2.18 ± 0.07
4 | DVFTINPHQKDQLIISS [YML103C/NUP188] | 1.56 ± 0.18 | 1.62 ± 0.24 | 2.74 ± 0.24 | 2.19 ± 0.19
5 | HPLHELIIQYPPNNARR [ISW2] | 3.06 ± 0.065 | 2.73 ± 0.052 | 3 ± 0.047 | 2.88 ± 0.056
6 | AGKADTSIRLEGDELEN [SRB4] | 2.67 ± 0.089 | 2.91 ± 0.088 | 3.25 ± 0.077 | 2.97 ± 0.12
7 | LEEIRGNPLSIGTLEEI [RPT2] | 3.29 ± 0.1 | 3.13 ± 0.076 | 3.25 ± 0.17 | 3.42 ± 0.14
8 | GSKISSNDLDKFFQKKI [YGL172W/NUP49] | 1.72 ± 0.069 | 1.7 ± 0.074 | 2.27 ± 0.057 | 2.02 ± 0.076
9 | VPPTIAQFQYTLDRNTA [RPL8A] | 1.83 ± 0.06 | 1.64 ± 0.095 | 1.68 ± 0.044 | 2.06 ± 0.048
10 | KEAALKTMIKTIEKDKM [SMC2] | 2.8 ± 0.17 | 1.57 ± 0.13 | 2.03 ± 0.061 | 1.83 ± 0.14
11 | EDEEDDNISSFHSAVEN [YCG1] | 3.12 ± 0.069 | 3.26 ± 0.052 | 2.6 ± 0.063 | 3.2 ± 0.095
12 | IYKPLLFEIVSNADTNQ [SRB8] | 1.71 ± 0.06 | 2.33 ± 0.09 | 1.49 ± 0.078 | 2.11 ± 0.066
13 | TPSFSFGKTTANLPANS [YLR335W/NUP2] | 2.84 ± 0.069 | 3.01 ± 0.13 | 3.19 ± 0.054 | 2.96 ± 0.1
14 | GSSKPAFSFGAKPDEKK [YJL041W/NSP1] | 3.19 ± 0.17 | – | 3.29 ± 0.17 | 3.18 ± 0.14
15 | RSDREYPLLIRMSYGSH [SRP14] | 2.51 ± 0.077 | 1.92 ± 0.077 | 2.23 ± 0.061 | 2.3 ± 0.077
16 | LKTFHFAGVASMNVTLG [RPO31] | 2.17 ± 0.081 | 2.34 ± 0.093 | 1.98 ± 0.055 | 2.25 ± 0.048
17 | ERYSDKYLKKRKIGISI [RPC31] | 1.61 ± 0.11 | – | 2.44 ± 0.21 | 2.39 ± 0.23
18 | DIILGQNIKAPSVKRQK [PRP8] | 2.44 ± 0.081 | 1.53 ± 0.16 | 2.51 ± 0.072 | 2.35 ± 0.078
19 | SKISFIDEDKLYPSFKP [SSN2] | 2.96 ± 0.14 | 2.25 ± 0.087 | 2.54 ± 0.081 | 2.8 ± 0.12
20 | VIDIGASGCNVTPIIDG [ARP7] | 2.67 ± 0.088 | 2.93 ± 0.071 | 3.02 ± 0.05 | 3.03 ± 0.084
21 | LANRSKENFILDSLMKT [YJL039C/NUP192] | 2.47 ± 0.095 | 3.03 ± 0.12 | 2.69 ± 0.069 | 2.64 ± 0.12
22 | KLSSAENANADLENKFN [YIL149C/MLP2] | 3.06 ± 0.063 | 3.07 ± 0.062 | 3.1 ± 0.042 | 3.31 ± 0.073
23 | EQQPEQPQETEEHHEEE [RPT4] | 3.41 ± 0.084 | 3.2 ± 0.12 | 3.44 ± 0.1 | 3.28 ± 0.12
24 | EPEEEKSKREEEAKSVL [ARP9] | 3.15 ± 0.27 | – | 3.25 ± 0.17 | 3.53 ± 0.29
25 | EMTLPTSPLYMDPGAPL [SSN2] | 3.07 ± 0.11 | 2.8 ± 0.15 | 2.81 ± 0.11 | 2.8 ± 0.11
26 | VYDFYGRHVATCSSDQH [YGL100W/SEH1] | 2.75 ± 0.068 | 2.43 ± 0.072 | 2.2 ± 0.049 | 2.32 ± 0.06

Row | Sequence | protein stability index (doa10∆) | protein stability index (san1∆) | protein stability index (ubr1∆) | protein stability index (pdr5∆)
27 | KKRSKARKETYSSYIYK [HTB1] | 2.84 ± 0.24 | – | 2.95 ± 0.15 | 2.9 ± 0.15
28 | KLKECPFDMGGYFIING [RPB2] | 3 ± 0.078 | 2.72 ± 0.073 | 3.07 ± 0.051 | 3.07 ± 0.082
29 | TLLESNLCKIIEPFECV [RPN6] | 2.26 ± 0.085 | 2.28 ± 0.12 | 2.88 ± 0.16 | 2.81 ± 0.12
30 | TLAEVKAAGLTAAYART [RPL13A] | 1.38 ± 0.11 | 1.5 ± 0.12 | 1.54 ± 0.061 | 1.89 ± 0.097
31 | CAFLLTKIKDAEEDSLL [YJL039C/NUP192] | 3.22 ± 0.11 | 3.08 ± 0.11 | 3.35 ± 0.1 | 3.4 ± 0.071
32 | IVPLHSPFLMGHPMTKS [SEC65] | 2.76 ± 0.083 | 2.57 ± 0.079 | 2.79 ± 0.055 | 2.57 ± 0.07
33 | FCPIVEEIVSNSSRFSD [YCS4] | 1.97 ± 0.1 | 1.68 ± 0.21 | 2.35 ± 0.057 | 1.35 ± 0.14
34 | LDLSRSNGVLNVDNQTS [RPS17A] | – | – | – | 3.09 ± 0.22
35 | TSDPVMHKQLAYILAAQ [RPN1] | 1.68 ± 0.15 | – | 2.1 ± 0.11 | 2.52 ± 0.17
36 | MSDHSLDKLNCAINSKS [RRP6] | 2.49 ± 0.057 | 2.59 ± 0.051 | 2.83 ± 0.036 | 2.8 ± 0.047
37 | LSKFFFFIFVFNFVLLG [COB] | 1.42 ± 0.13 | 1.09 ± 0.25 | 1.22 ± 0.15 | 1.19 ± 0.12
38 | LTGEWSTKFDYPPMPFD [FAS1] | 2.85 ± 0.056 | 2.85 ± 0.048 | 2.94 ± 0.037 | 2.96 ± 0.062
39 | NNLFRIIAELSFLKVDP [YJL039C/NUP192] | 3.08 ± 0.054 | 3.24 ± 0.093 | 3.07 ± 0.086 | 3.02 ± 0.12
40 | LTTQFVTDKYTAKKTNR [YDL088C/ASM4] | 2.74 ± 0.14 | – | 2.8 ± 0.11 | 2.83 ± 0.093
41 | IIVENSGTSGDEDVDVL [RPN2] | 3.3 ± 0.12 | 3.5 ± 0.075 | 3.52 ± 0.095 | 3.61 ± 0.095
42 | PKDFSPNFTGIDKLMLS [SSN2] | 1.42 ± 0.17 | 1.85 ± 0.27 | 1.26 ± 0.11 | 1.38 ± 0.15
43 | SFSFGAPESMKSTASTA [YOR098C/NUP1] | 3.07 ± 0.069 | 3.31 ± 0.059 | 3.12 ± 0.053 | 3.13 ± 0.091
44 | NYQYKIQELRKLLKSLL [MED7] | 1.43 ± 0.07 | 2.28 ± 0.22 | 1.81 ± 0.072 | 1.88 ± 0.095
45 | SKKLNLKIHQSHLVVPY [YMR129W/POM152] | 2.32 ± 0.15 | – | 2.88 ± 0.14 | 1.95 ± 0.086
46 | FGAKPDENKASATSKPA [YJL041W/NSP1] | 2.59 ± 0.066 | 2.56 ± 0.057 | 2.74 ± 0.052 | 2.87 ± 0.052
47 | CWLSSVDVNTQKSFEQL [RPN11] | 2.69 ± 0.095 | 1.4 ± 0.29 | 1.35 ± 0.065 | 1.28 ± 0.19
48 | DKGLLPYAIMETANEIL [RPO31] | 2.95 ± 0.14 | – | 2.25 ± 0.13 | 2.71 ± 0.19
49 | KKTKFLSPSGHKTFLVA [RPL32] | – | 1.44 ± 0.27 | – | –
50 | SKKTSPKATSSAGAVFK [YOR098C/NUP1] | 2.7 ± 0.12 | 2.54 ± 0.085 | 2.61 ± 0.046 | 2.42 ± 0.086
51 | NNSTSNANTVFSERAAM [SWI1] | 2.63 ± 0.06 | 2.97 ± 0.062 | 3.24 ± 0.089 | 3.27 ± 0.097
52 | ALQKGLKDLMDLCDVVE [RPC19] | 3.44 ± 0.24 | 2.92 ± 0.13 | 3.02 ± 0.14 | 2.84 ± 0.28
